14 molecules from PMC1402309, “Selection, affinity maturation, and characterization of a human scFv antibody against CEA protein” (BMC Cancer, 2006) can be followed below.

Sequences and labels used below:
B1: E2 (antibody, V domains shown)
VH: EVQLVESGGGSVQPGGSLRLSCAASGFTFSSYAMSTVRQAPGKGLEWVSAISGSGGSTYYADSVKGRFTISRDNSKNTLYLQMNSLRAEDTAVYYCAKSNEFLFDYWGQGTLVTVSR
VL: SSELTQDPAVSAAWGQTVRITCRGGSLGSSRASWYQQKPGQAPVLVIYGRNNRPSGIPDRFSGSSSGNTASLAITGAQAEDEADYYCNSSYAWLPYVVFGGGTKLTVL
B2: B3 (antibody, V domains shown)
VH: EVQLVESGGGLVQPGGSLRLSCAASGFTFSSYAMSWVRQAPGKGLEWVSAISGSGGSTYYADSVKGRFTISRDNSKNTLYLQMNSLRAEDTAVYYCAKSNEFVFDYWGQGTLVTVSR
VL: SSELTQDPAVSVALRQTVRITCQRDSLRSYYASWYQQKPGQAPVLVIYGKNNRPSGIPDRFSGSSSGNTASLTITGAQAEDEADYYCNSSYPWLPYVVFGGGTKLTVL
B3: E15 (antibody, V domains shown)
VH: EVQLVESGGGLVQPGGSLRLSCTASGFTFSRYAMSTVRQAPGKGLEWVSAISGSGGSTYYADSVKGRFTISRDNSKNTLYLQMNSLRAEDTAVYYCAKSNEFLFDYWGQGTLVTVSR
VL: SSELTQDPAVSVALGQTVRITCQGDSLRSSYASWYQQKPGQAPVLVIYGKNNRPSGIPDRFSVSSSGNTASLTITGAQAEDEADYYCNSSYAWLPYVVFGGGTKLTVL
B4: E1 (antibody, V domains shown)
VH: EVQLAESGGGLVQPGGSLRLPCAAPGFTFSSYAMSTVRQAPGKGLEWVSAISGSGGSTYYADSVKGRFTISRDNSKNTLYLQMNSLRAEDTAVYYCAKSNEFLFDYWGQGTLVTVSR
VL: SSELTQDPAVSVALGQTVRITCRGDSLRSSYASWYQQKPGQAPVLVIYGKNNRPSGIPDRFSVSSSGNTASLTITGAQAEDEADYYCNSSYAWPPYVVFGGGTKLTVL
B5: E9 (antibody, V domains shown)
VH: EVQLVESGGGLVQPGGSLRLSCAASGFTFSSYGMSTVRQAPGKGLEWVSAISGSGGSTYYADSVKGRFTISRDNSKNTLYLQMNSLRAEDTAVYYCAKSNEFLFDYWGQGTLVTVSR
VL: SSELTQDPAVSVALGQTVRITCQGDSLRSSYASWYQQKPGQAPVLVIYGKNNRPSGIPGRFSVSSSGNTASLTITGAQAEDEADYYCNSSYAWLPYVVFGGGTKLTVL
B6: B5 (antibody, V domains shown)
VH: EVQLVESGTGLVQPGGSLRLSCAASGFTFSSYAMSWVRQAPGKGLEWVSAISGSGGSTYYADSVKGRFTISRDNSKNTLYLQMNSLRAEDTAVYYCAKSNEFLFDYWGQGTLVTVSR
VL: SSELTQDPAVPVALRQTVRITCQGDSLRSYYASWYQQKPGQAPVLVIYGKNNRPSGIPDRFSGSSSGNTASLTITGAQAEDEADYYCNSSYPWLPYVVFGGGTKLTVL
B7: E4 (antibody, V domains shown)
VH: EVQLAESGGGLVQPGGSLRLSCAASGFTFSSYGMSTVRQAPGKGLEWVSAISGSGGSTYYADSVKGRFTISRDNSKNTLYLQMNSLRAEDTAVYYCAKSNEFLFDYWGQGTLVTVSR
VL: LSELTQDPAASVALGQTVRITCQGDSLRSSYASWYQQKPGQAPVLVIYGKNNRPPGIPDRFSVSSSGNTASLTITGAQAEDEADYYCNSSYAWLPYVVFGGGTKLTVL
B8: B17 (antibody, V domains shown)
VH: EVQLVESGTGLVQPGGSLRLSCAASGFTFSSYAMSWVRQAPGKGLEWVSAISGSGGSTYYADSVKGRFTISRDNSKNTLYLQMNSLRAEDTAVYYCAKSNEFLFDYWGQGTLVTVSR
VL: SSELTQDPAVSVALGQTVRITCQGDSLRSYYASWYQQKPGQAPVLVIYGKNNRPSGIPDRFSGSSSGNTASLTITGAQAEDEADYYCNSSYPWLPYVVFGGGTKLTVL
B9: E5 (antibody, V domains shown)
VH: EVQLAESGGGLVQPGGSLRLSCAASGLTFSSYGMSTVRQAPGKGLEWVSAISGSGGSTYYADSVKGRFTISRDNSKNTLYLQMNSLRAEDTAVYYCAKSNEFLFDYWGQGTLVTVSR
VL: SSELTQDPAVSVASGQTVRITCQGDSLRSSYASWYQRKPGQAPVLVIYGKNNRPSGIPDRFSGSSSGSTASLTITGAQAEDEADYYCNSSYAWLPYVVFGGGTKLTVL
B10: E6 (antibody, V domains shown)
VH: EVQLVETGGGLVQPGGSLRLSCAASGFAFSSYGMSTVRQAPGKGLEWVSAISGSGGSTYYADSVKGRFTISRDNSKNTLYLQMNSLRAEDTAVYYCAKSNEFLFDYWGQGTLVTVSR
VL: SSELTQDPAVSVALGQTVRITCQGDSLRSSHASWYQQKPGRAPVLVIYGKNNRPSGIPARFSASSSGNTASLTITGAQAEDEADYYCNSSYAWLPYVVFGGGTKLTVL
B11: E13 (antibody, V domains shown)
VH: EVQLAEPGGGLVQPGGSLRLSCAASGLTFSSYAMSTIRQAPGKGLEWVSAISGSGGSTYYADSVKGRFTISRDNSENTLYLQMNSLRAEDTAVYYCAKSNEFLFDYWGQGTLVTVSR
VL: SSELTQDPAVSVALGQAVRITCQGDSLRSTYASWYQQKPGQAPVLVIYGKNNRPSGIPDRFSGSSSGNTASLTIAGAQAEDEADYYCNSSYAWLPYVVFGGGTKLTVL
B12: E3 (antibody, V domains shown)
VH: EVQLAESGGGLVRPGGSLRLSCAASGFTFSSYAMSTVRQAPGKGLEWVSAISGSGGSTYYADSVKGRFTISRDNSENTLYLQMNSLRAEDTAVYYCAKSNEFLFDYWGQGTLVTVSR
VL: SSELTQDPAVSVALGQTVRITCQGDSLRSSYASWYQQKPGQAPVLVIYGKNNRPSGIPDRFSGSSSGNTASLTITGAQAEDEADYYCNSSYAWLPYVVFGGGTKLTVL
B13: E14 (antibody, V domains shown)
VH: EVQLAESGGGLVQPGGSLRLSCAASGFTFSSYAMSTVRQAPGKGLEWVSAISGSGGSTYYADSVMGRFTISRDNSKNTLYLQMNSLRAEDTAVYYCAKSNEFLFDYWGQGTLVTVSR
VL: SSELTQDPAVSVALGQTVRITCQGDSLRGSYASWHQQKPGQAPVLVIYGKNNRPSGIPDRFSVSSSGNTASLTITGAQAEDEADYYCNSSYAWLPYVVFGGGTKLTVL
B14: human MA39 scFv (anti-CEA single-chain antibody fragment) (scFv, V domains shown)
VH: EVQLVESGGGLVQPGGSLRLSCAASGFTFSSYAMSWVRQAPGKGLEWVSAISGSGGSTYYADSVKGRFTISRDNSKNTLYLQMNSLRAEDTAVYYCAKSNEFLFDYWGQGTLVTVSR
VL: SSELTQDPAVSVALGQTVRITCQGDSLRSYYASWYQQKPGQAPVLVIYGKNNRPSGIPDRFSGSSSGNTASLTITGAQAEDEADYYCNSSYPWLPYVVFGGGTKLTVL
notes: clone from the ETH-2 synthetic human scFv library (DP47 heavy chain; DPK22 or DPL16 light chain, randomised CDR3s); the ELISA methods use soluble scFv; The methods name the host once as 'HB121'; also called scFv MA39; M39; source: E. coli HB2151, periplasmic extract, purified (Ni-NTA agarose); also culture supernatant

T1 sequence (P06731 35-685): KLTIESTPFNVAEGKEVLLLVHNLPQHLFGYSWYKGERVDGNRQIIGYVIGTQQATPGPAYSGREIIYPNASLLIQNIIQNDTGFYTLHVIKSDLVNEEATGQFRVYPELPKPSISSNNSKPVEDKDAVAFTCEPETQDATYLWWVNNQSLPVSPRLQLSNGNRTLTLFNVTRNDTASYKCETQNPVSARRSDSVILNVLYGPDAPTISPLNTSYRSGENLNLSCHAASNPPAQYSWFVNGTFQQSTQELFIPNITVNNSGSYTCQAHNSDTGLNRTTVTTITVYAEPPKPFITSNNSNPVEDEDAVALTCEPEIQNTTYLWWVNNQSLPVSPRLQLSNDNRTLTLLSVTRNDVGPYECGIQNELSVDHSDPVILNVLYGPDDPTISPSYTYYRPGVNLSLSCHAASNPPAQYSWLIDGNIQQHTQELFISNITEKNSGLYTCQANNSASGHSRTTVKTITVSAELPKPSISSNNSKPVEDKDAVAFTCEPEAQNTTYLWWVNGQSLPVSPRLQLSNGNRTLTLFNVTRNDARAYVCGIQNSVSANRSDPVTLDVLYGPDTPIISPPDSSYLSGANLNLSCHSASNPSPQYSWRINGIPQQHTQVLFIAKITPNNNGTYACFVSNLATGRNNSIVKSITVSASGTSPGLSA

The first assay has as its target T1, carcinoembryonic antigen (CEA), human purified protein (Sigma) (Homo sapiens, UniProt P06731, biotin (biotinamidohexanoic acid N-hydroxysuccinimide ester) for selection and for the ELISA on streptavidin-coated plates; biotin-free for directly coated plates).
Assay: not given
Conditions: not given
As for B1, the binding result was “binds”.
Same read-out and setting: next, B2: “binds”; B3: “binds”; B4: “binds”.
On the same count and under the same terms, then B5, with “binds”; and B6, with “binds”.
On the same count and under the same terms, then B7, with “binds”.
As to B8, the binding result is “binds”.
Same read-out and setting: then B9, with “binds”.
The same measure, in the same setting: next, B10: “binds”; B11: “binds”; B12: “binds”.
Same read-out and setting: next, B13: “binds”.

In the next assay the target is T1, carcinoembryonic antigen (CEA), human …. The experiment in a line: ELISA; biotinylated CEA (1 ug/mL) on streptavidin-coated plates; scFv in blocking buffer (MPBS) 1 h at RT; anti-FLAG M2 and anti-mouse HRP. Particulars: one partner purified. (ELISA stands for enzyme-linked immunosorbent assay.)
Consider B14, for which the binding result is “binds”.

For the next assay, the target named is T2, CEA, endogenous in human colon carcinoma LoVo cells (Homo sapiens (LoVo cells), UniProt P06731).
T2 construct: carcinoembryonic antigen (CEA, CEACAM5), endogenous in LoVo colorectal carcinoma cells; which member carries the signal on cells is not separated; also called CEA in LoVo cells; 200 kDa band of LoVo cellular extract; source: endogenous, LoVo cells (on cells) and LoVo cellular extract
T2 sequence (P06731 35-685): as above
The experiment in a line: flow cytometry on cells; living/intact human cells; 5 ug/mL scFv in PBS 1% BSA, 1 h at RT; anti-FLAG and FITC goat anti-mouse IgG; grades by percent stained cells. The note with it: one partner purified.
In the case of B14, the binding result is given as “binds”.
